{"source": "patent US10975357B2", "about": "“Methods and compositions related to differentiated lung cells” (TRUSTEES OF BOSTON UNIVERSITY, priority 2017, dated 2021)", "molecules": {"B1": {"name": "KGF: Recombinant human KGF, agonist of FGF signaling (protein, UniProt P21781 32-194, looked up)", "Fibroblast growth factor 7": "CNDMTPEQMATNVNCSSPERHTRSYDYMEGGDIRVRRLFCRTQWYLRIDKRGKVKGTQEMKNNYNIMEIRTVAVGIVAIKGVESEFYLAMNKEGKLYAKKECNEDCNFKELILENHYNTYASAKWTHNGGEMFVALNQKGIPVRGKKTKKEQKTAHFLPMAIT"}, "B2": {"name": "OSM: Recombinant human OSM, cytokine activating the JAK/STAT3 pathway (protein, UniProt P13725 26-221, looked up)", "Oncostatin-M": "AAIGSCSKEYRVLLGQLQKQTDLMQDTSRLLDPYIRIQGLDVPKLREHCRERPGAFPSEETLRGLGRRGFLQTLNATLGCVLHRLADLEQRLPKAQDLERSGLNIEDLEKLQMARPNILGLRNNIYCMAQLLDNSDTAEPTKAGRGASQPPTPTPASDAFQRKLEGCRFLHGYHRFMHSVGRVFSKWGESPNRSRR"}, "B3": {"name": "BMP4: recombinant human BMP4 (protein, UniProt P12644 293-408, looked up)", "Bone morphogenetic protein 4": "SPKHHSQRARKKNKNCRRHSLYVDFSDVGWNDWIVAPPGYQAFYCHGDCPFPLADHLNSTNHAIVQTLVNSVNSSIPKACCVPTELSAISMLYLDEYDKVVLKNYQEMVVEGCGCR"}, "B4": {"name": "FGF10: Recombinant human FGF10 (protein, UniProt O15520 38-208, looked up)", "Fibroblast growth factor 10": "QALGQDMVSPEATNSSSSSFSSPSSAGRHVRSYNHLQGDVRWRKLFSFTKYFLKIEKNGKVSGTKKENCPYSILEITSVEIGVVAVKAINSNYYLAMNKKGKLYGSKEFNNDCKLKERIEENGYNTYASFNWQHNGRQMYVALNGKGAPRRGQKTRRKNTSAHFLPMVVHS"}}, "key": {"[1]": {"tested_on": "NKX2-1+ lung epithelial progenitor cells", "assay": "SFTPCtdTomato reporter induction in day 15 NKX2-1+ progenitor outgrowth in 3D culture (flow cytometry)", "format": "cell-based, human", "settings": "for further SFTPC induction efficiency with addition of the factor: factor added to differentiation media, FIG. 9B", "description": "Purification of NKX2-1+ Lung Progenitors by Cell Sorting. On day 15 of differentiation, cells were incubated at 37° C. in 0.05% trypsin-EDTA (Invitrogen) for 7-15 minutes, until they reached single cell suspension. Cells were then washed in media containing 10% fetal bovine serum (FBS, ThermoFisher), centrifuged at 300g×5 minutes, and resuspended in sort buffer containing Hank's Balanced Salt Solution (ThermoFisher), 2% FBS, 10 μM Y-27632, and 10 uM calcein blue AM (Life Technologies) for dead cell exclusion. Cells not containing the NKX2-1GFP reporter were subsequently stained with CD47-PerCPCy5.5 and CD26-PE antibodies (mouse monoclonal; Biolegend 1:200; 1×10^6 cells in 100 ul) for 30 minutes at 4° C., washed with PBS, and resuspended in sort buffer. Cells were passed through a 40 um strainer prior to sorting (Falcon). Various live cell populations indicated in the text (i.e. GFP+, GFP−, CD47hi/CD26−,CD47lo) were sorted on a high-speed cell sorter (MoFlo Legacy). Directed Differentiation of NKX2-1+ Lung Progenitor Outgrowth into iAEC2s Day 15 cells, either sorted (as described above) or unsorted (dissociated as described above), were resuspended in undiluted growth factor-reduced matrigel (Corning) at a dilution of 50-100 cells/ul, with droplets ranging in size from 20 ul in 96 well plates to 1 ml in 10 cm tissue culture-treated dishes (Corning). Cells in matrigel suspension were incubated at 37° C. for 20-30 minutes, then warm media was added to the plates.\n(§1) Where indicated in the text, outgrowth and distal/alveolar differentiation of cells after day 15 was performed in “CK+DCI” medium, consisting of cSFDM base, with 3 μM CHIR99021, 10 ng/mL rhKGF, and 50 nM dexamethasone (Sigma), 0.1 mM 8-Bromoadenosine 3′,5′-cyclic monophosphate sodium salt (Sigma) and 0.1 mM 3-Isobutyl-1-methylxanthine (IBMX) (Sigma) (DCI). Immediately after replating cells on Day 15 10 μM Y-27632 was added to the medium for 24 hours. Additional growth factors or cytokines were added or withdrawn as indicated in the text, including FGF10, TGFb, EGF, OSM (20 ng/ml), TNFa (10 ng/ml), and IL-1b (10 ng/ml) with other concentrations listed in figure legends (FIGS. 9A, 9B).\nAlveolosphere Long Term Culture, Dissociation, and Differentiation. […] These spheres were analyzed as follows: Z-stack images of live alveolospheres were taken and processed on a Keyence (Osaka, Japan) BZ-X700 fluorescence microscope. […] To generate single cell suspensions, cell pellets were incubated in 0.05% trypsin and continued through the trypsin-based dissociation protocol described above, after which they could be passaged into fresh matrigel, analyzed by flow cytometry, or sorted as described above. […]"}, "[2]": {"tested_on": "JAK/STAT3 pathway", "assay": "Cytokine stimulation of PSC-derived alveolospheres, JAK/STAT3 pathway (Western blot phospho-STAT3, SOCS3 RT-qPCR)", "format": "cell-based, human", "settings": "OSM 20 ng/ml", "description": "as §1\nReverse Transcriptase Quantitative Real Time Polymerase Chain Reaction (RT-qPCR). RT-qPCR was performed as previously described (Hawkins et al. 2017,). Briefly, RNA was isolated according to manufacturer's instructions using the Qiagen miRNeasy mini kit (Qiagen, Venlo, Netherlands). cDNA was generated by reverse transcription of up to 150 ng RNA from each sample using the Applied Biosystems High-Capacity cDNA Reverse Transcription Kit. […] Relative gene expression was calculated based on the average cycle (Ct) value of the technical triplicates, normalized to 18S control, and reported as fold change (2(−ΔΔCT)), with a fold change of 1 being assigned to undifferentiated (day 0) iPSCs or ESCs. […]"}}}
{"molecule": "B1", "values": [{"measurement": "need for initial induction of the tdTomato reporter", "setting": "[1]; component removed from media, FIG. 9A, 9B", "value": "dispensable"}, {"measurement": "promoting outgrowth of tdTomato+ cells by day 21, combined with CHIR, compared to FGF10+CHIR", "setting": "[1]; day 21, FIG. 9B", "value": "more consistent"}]}
{"molecule": "B2", "values": [{"measurement": "STAT3 signaling (phosphorylated STAT3 protein, SOCS3 mRNA)", "setting": "[2]", "value": "significant and rapid activation of STAT3 signaling"}]}
{"molecule": "B3", "values": [{"measurement": "further SFTPC induction efficiency with addition of the factor", "setting": "[1]", "value": "No consistent further SFTPC induction efficiency"}]}
{"molecule": "B4", "values": [{"measurement": "further SFTPC induction efficiency with addition of the factor", "setting": "[1]", "value": "No consistent further SFTPC induction efficiency"}]}
